Assay [1] deals with TLR5 (UniProt O60602).
The target in assay [2] is TLR5 (UniProt O60602). This is another data set of the same source.
For assay [3], the target named is Naip5 and Naip6 (Naip5/6) (mouse (endogenous in BMDMs)).

UniProt O60602, sequence (O60602 21-858): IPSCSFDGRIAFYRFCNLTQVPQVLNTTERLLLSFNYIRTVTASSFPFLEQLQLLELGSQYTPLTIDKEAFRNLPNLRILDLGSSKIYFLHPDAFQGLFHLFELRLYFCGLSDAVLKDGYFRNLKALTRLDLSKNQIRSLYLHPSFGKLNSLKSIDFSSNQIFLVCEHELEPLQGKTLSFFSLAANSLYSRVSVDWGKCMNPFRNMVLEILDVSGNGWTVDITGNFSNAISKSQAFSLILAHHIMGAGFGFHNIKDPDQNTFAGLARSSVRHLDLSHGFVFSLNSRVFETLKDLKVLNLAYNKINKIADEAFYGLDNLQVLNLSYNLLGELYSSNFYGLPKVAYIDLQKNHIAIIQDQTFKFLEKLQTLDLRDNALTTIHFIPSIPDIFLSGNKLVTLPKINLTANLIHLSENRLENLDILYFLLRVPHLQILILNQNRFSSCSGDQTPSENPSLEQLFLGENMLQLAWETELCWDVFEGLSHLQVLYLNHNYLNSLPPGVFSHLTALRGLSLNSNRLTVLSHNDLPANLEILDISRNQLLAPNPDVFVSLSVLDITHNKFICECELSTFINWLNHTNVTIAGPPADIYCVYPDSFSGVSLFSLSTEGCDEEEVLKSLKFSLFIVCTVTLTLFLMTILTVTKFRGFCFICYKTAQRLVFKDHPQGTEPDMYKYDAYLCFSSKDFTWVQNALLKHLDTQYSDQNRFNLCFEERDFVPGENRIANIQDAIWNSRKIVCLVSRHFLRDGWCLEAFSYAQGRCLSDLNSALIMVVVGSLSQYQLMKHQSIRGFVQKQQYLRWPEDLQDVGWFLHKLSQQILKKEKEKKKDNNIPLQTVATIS

With “FliC^ΔD3 (from UniProt P06179 1-495) (natural protein)”, in the assay with TLR5 [1], the TLR5 EC50 (NF-κB luciferase reporter assay, stably transfected CHO K1 cells) is 0.1 ng/mL.
For “FliC flagellin monomers isolated from S. Typhimurium strain SL1344 (ΔflgM) (from UniProt P06179 1-495) (natural protein)”, the TLR5 stimulatory activity, EC50 (NF-κB luciferase reporter assay, stably transfected CHO K1 cells) in the assay with TLR5 [2] was 1.1 ng/mL. Further, in assay [3], the Inflammasome EC50 (IL-1β secretion of LPS-primed mouse BMDMs after transfection of the protein) came to 2 ng/mL. The TLR5 EC50 (NF-κB luciferase reporter assay, stably transfected CHO K1 cells) in the assay with TLR5 [1] came to 1.2 ng/mL.

The values are drawn from article PMC11650696.
